Molecular target: GST (UniProt P08515 P08515:1-218)
Assay: EMSA; negative control
Details: label: 32P or biotin

Sequence of GST (P08515 whole entry, one chain of several): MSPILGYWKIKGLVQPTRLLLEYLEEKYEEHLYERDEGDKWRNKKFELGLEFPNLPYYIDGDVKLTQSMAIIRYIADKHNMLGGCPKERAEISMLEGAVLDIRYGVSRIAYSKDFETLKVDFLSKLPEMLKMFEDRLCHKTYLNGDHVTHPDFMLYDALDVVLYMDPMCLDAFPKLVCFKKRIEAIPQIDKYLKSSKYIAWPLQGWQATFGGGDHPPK

B1: B19V Ori (dsDNA)
DNA 1: GCCGCCGGTCGCCGCCGGTAGGCGGGACTTCCGGTACA
DNA 2: TGTACCGGAAGTCCCGCCTACCGGCGGCGACCGGCGGC
- binding result: no binding

— patent US20190203229, “cis AND trans REQUIREMENTS FOR […] RESOLUTION OF HUMAN BOCAVIRUS 1” (University of Iowa Research Foundation, published 2019)
